For one experiment, the system named is hGIPR. The note with it: R5.40A; ref [71]; cited from earlier work.
For experiment [1], the target named is human GLP-1R Y3.53^250A (human) (UniProt P43220). Put plainly: radioligand binding.
The target in experiment [2] is human GLP-1R R6.37^348A (human) (UniProt P43220). In words: radioligand binding.
Experiment [3] concerns the target human GLP-1R R2.46^176A (human) (UniProt P43220). Put plainly: radioligand binding.
Experiment [4] has as its target human GLP-1R K6.35^346A (human) (UniProt P43220). In words: radioligand binding.
Experiment [5] has as its target human GLP-1R E7.63^408A (human) (UniProt P43220). In words: radioligand binding.
The target of experiment [6] is human GLP-1R Q7.65^410A (human) (UniProt P43220). Put plainly: radioligand binding.
Experiment [7] has as its target human GLP-1R K4.64^288A (human) (UniProt P43220). Put plainly: radioligand binding.
The target in experiment [8] is human GLP-1R R3.30^227A (human) (UniProt P43220). In words: radioligand binding.
The target of experiment [9] is human GLP-1R K6.40^351A (human) (UniProt P43220). In words: radioligand binding.
Experiment [10] deals with N-terminally double c-myc labelled wildtype human GLP-1R (human) (UniProt P43220). In words: radioligand binding.
In experiment [11] the target is human GLP-1R R5.56^326A (human) (UniProt P43220). Put plainly: radioligand binding.
Experiment [12] has as its target human GLP-1R R5.40^310A (human) (UniProt P43220). Put plainly: radioligand binding.
In experiment [13] the target is human GLP-1R Y3.53^250A (human) (UniProt P43220).
The target of experiment [14] is human GLP-1R R6.37^348A (human) (UniProt P43220).
Experiment [15] deals with human GLP-1R R2.46^176A (human) (UniProt P43220).
Experiment [16] addresses human GLP-1R K6.35^346A (human) (UniProt P43220).
For experiment [17], the target named is human GLP-1R E7.63^408A (human) (UniProt P43220).
The target in experiment [18] is human GLP-1R Q7.65^410A (human) (UniProt P43220).
Experiment [19] deals with human GLP-1R K4.64^288A (human) (UniProt P43220).
Experiment [20] has as its target human GLP-1R N2.52^182A (human) (UniProt P43220).
Experiment [21] has as its target human GLP-1R R3.30^227A (human) (UniProt P43220).
Experiment [22] addresses human GLP-1R K6.40^351A (human) (UniProt P43220).
Experiment [23] addresses N-terminally double c-myc labelled wildtype human GLP-1R (human) (UniProt P43220).
Experiment [24] concerns the target human GLP-1R R5.56^326A (human) (UniProt P43220).
Experiment [25] has as its target human GLP-1R R5.40^310A (human) (UniProt P43220).

For “glucose-dependent insulinotropic peptide (YAEGTFISDYSIAMDKIHQQDFVNWLLAQKGKKNDWKHNITQ; Gastric inhibitory polypeptide; UniProt P09681 52-93, looked up) [GIP]”, the “Effect compared with WT: cAMP production” value in the experiment on hGIPR is reported as “Reduced GIP mediated cAMP production”.
On to “exendin-4 (from UniProt P26349 48-87) (peptide)”, for which the pKi is 8.68 pKi in experiment [1]; 8.8 pKi in experiment [2]; 8.61 pKi in experiment [3]; 9.34 pKi in experiment [4]; 8.29 pKi in experiment [5]; 9.08 pKi in experiment [6]. Besides, the pKi in experiment [7] was found to be 7.39 pKi; in experiment [8], 7.6 pKi; in experiment [9] it was 8.92 pKi; in experiment [10], 8.87 pKi; in experiment [11] it was 8.59 pKi; in [12] it was 7.99 pKi. For the same substance, the −Log KA (functional affinity) from operational model fit of cAMP accumulation curves is 9.37 −Log KA in experiment [13]; 9.37 −Log KA in experiment [14]; 8.95 −Log KA in experiment [15]; 9.91 −Log KA in [16]; 8.89 −Log KA in experiment [17]; 9.41 −Log KA in [18]. The −Log KA (functional affinity) from operational model fit of cAMP accumulation curves is 8.16 −Log KA in experiment [19]; 9.16 −Log KA in experiment [20]; 8.13 −Log KA in experiment [21]; 9.31 −Log KA in [22]; 9.24 −Log KA in [23]; 9.22 −Log KA in experiment [24]. Besides, the −Log KA (functional affinity) from operational model fit of cAMP accumulation curves in experiment [25] was 7.79 −Log KA. The −Log KA (functional affinity) from operational model fit of pERK1/2 curves is 8.11 −Log KA in experiment [13]; 8.35 −Log KA in [14]; 8.12 −Log KA in experiment [15]; 8.21 −Log KA in experiment [16]; 8.35 −Log KA in experiment [17]; 8.35 −Log KA in [18]. Also, the −Log KA (functional affinity) from operational model fit of pERK1/2 curves in [19] was 7.01 −Log KA; in experiment [20], 8.21 −Log KA; in experiment [21] it was 7.31 −Log KA; in [22] it was 8.12 −Log KA; in experiment [23], 8.31 −Log KA; in [24] it was 8.33 −Log KA. The −Log KA (functional affinity) from operational model fit of pERK1/2 curves in [25] was 7.53 −Log KA. For the same substance, the −Log KA (functional affinity) from operational model fit of iCa2+ mobilisation curves is 7.08 −Log KA in [14]; 7.39 −Log KA in [15]; 7.78 −Log KA in experiment [16]; 7.01 −Log KA in [17]; 7.1 −Log KA in experiment [18]; 6.82 −Log KA in experiment [21]. Besides, the −Log KA (functional affinity) from operational model fit of iCa2+ mobilisation curves was 7.15 −Log KA in [22], 7.46 −Log KA in experiment [23] and 7.1 −Log KA in [24].
